{"source": "patent US10723771B2", "about": "“Modified microorganisms expressing SagA as anti-infective agents, probiotics and food components” (priority 2015, dated 2020)", "molecules": {"B1": {"name": "SagA: E. faecium secreted antigen A, NlpC/p60 peptidoglycan hydrolase, SEQ ID NO:1, purified His6-tagged (protein, listed as Enterococcus faecium)", "chain": "MKKSLISAVMVCSMTLTAVASPIAAAADDFDSQIQQQDQKIADLKNQQADAQSQIDALESQVSEINTQAQDLLAKQDTLRQESAQLVKDIADLQERIEKREDTIQKQAREAQVSNTSSNYIDAVLNADSLADAIGRVQAMTTMVKANNDLMEQQKQDKKAVEDKKAENDAKLKELAENQAALESQKGDLLSKQADLNVLKTSLAAEQATAEDKKADLNRQKAEAEAEQARIREQQRLAEQARQQAAQEKAEKEAREQAEAEAQATQASSTAQSSASEESSAAQSSTTEESSSAAQSSTTEESTTAPESSTTEESTTAPESSTTEESTTVPESSTTEESTTVPESSTTEESTTVPESSTTEESTTVPETSTEESTTPAPTTPSTDQSVDPGNSTGSNATNNTTNTTPTPTPSGSVNGAAIVAEAYKYIGTPYVWGGKDPSGFDCSGFTRYVYLQVTGRDIGGWTVPQESAGTKISVSQAKAGDLLFWGSPGGTYHVAIALGGGQYIHAPQPGESVKVGSVQWFAPDFAVSM", "modifications": "His6 tag"}}, "key": {"[1]": {"system": "S. Typhimurium", "assay": "Liquid-treatment pulsed infection assay: C. elegans treated in liquid wells, then infected with S. Typhimurium, survival scored", "type": "in vivo", "details": "for Inhibition of S. Typhimurium pathogenesis (C. elegans survival): liquid wells 2 hours before infection, protein 10-20 μg/mL, defined fragments 50 μM, digests 100 μL; for Inhibition of S. Typhimurium pathogenesis (survival) in tol-1(nr2033) animals: tol-1(nr2033) C. elegans, liquid treatment", "from_the_text": "C. elegans infection assays: For each condition, 3 plates of 30 worms each (total 90 worms) were scored, unless otherwise noted. Mean percent survival and standard deviation of the triplicate plates for a representative experiment are shown for extended data figures. Mean percent survival and statistical comparisons by log rank test after Bonferroni correction for multiple comparisons using OASIS software are shown in the figures. E. faecium refers to strain Com15 unless otherwise noted in the figure legends. Worms were handled using a Leica M60 microscope and imaged using a Leica IC80 HD camera.\nLiquid-treatment pulsed infection assay: Synchronized young adult worms were transferred to 96-well plate wells containing 32% BHI media, culture supernatant, or live cultures. For protein treatments, 10-20 μg/mL of protein in PBS was included in each well. For treatment with peptidoglycan digests, 100 μL of each digest was added to each well. For treatment with defined peptidoglycan fragments, 50 μM of each fragment in a mixture of PBS and water was included in each well. MDP, GlcNAc, and MurNAc were purchased from Sigma-Aldrich. MurNAc-L-Ala was synthesized as described below in Scheme 51. After 2 hours, worms were washed and transferred to lawns of IR715 grown on BHI plates for 1 day. Then, worms were washed and transferred to lawns of OP50 grown on NGM plates (Day 0). Worms were maintained on OP50-NGM plates and survival was scored.\nTreatment of culture supernatants: Proteinase K treatment: Culture supernatant or media was digested with 0.1 mg/mL of proteinase K in the presence of 1 mM CaCl2 for 2 hours at 37° C. Then, 1 mM EGTA was added, and digestions were used in the liquid-treatment pulsed infection assay.\nTrichloroacetic acid precipitation: Culture supernatant or media was precipitated with TCA (final concentration of 10%) overnight at 4° C. Precipitated proteins were pelleted and rinsed 2 times in acetone, then air-dried and resuspended in BHI media before use in the liquid-treatment pulsed infection assay. 10-kDa MWCO column filtration: E. faecium culture supernatant or media was filtered through 10-kDa MWCO columns (Vivaspin GE Healthcare), and the flow-thru was used in the liquid-treatment pulsed infection assay.\n5-kDa MWCO column filtration of E. coli culture supernatants: E. coli BL21-RIL(DE3) expressing SagA-His or AS-His were induced in BHI media instead of LB as described above. Portions of the culture supernatants were filtered through 5-kDa MWCO columns (Vivaspin GE Healthcare), and the unfiltered supernatants, column concentrate, and column flow-thru were used in the liquid-treatment pulsed infection assay.\nPeptidoglycan Digests: 100 μg of E. coli peptidoglycan (Invivogen) was digested with 20 μg lysozyme (Sigma) and 20 μg of SagA-His or AS-His overnight in a mixture of PBS and water at 37° C. Digests were then filtered through 5-kDa MWCO columns (Vivaspin GE Healthcare), and the flow-thru was used in the liquid-treatment pulsed infection assay."}, "[2]": {"system": "S. Typhimurium", "assay": "Colonization and S. Typhimurium infection of mice (weight loss, fecal burden, survival)", "type": "in vivo", "details": "MurNAc alone", "description": "Specific pathogen-free (SPF) mice were gavaged with either a single dose of 20 mg streptomycin or a daily dose of AMNV antibiotic cocktail (4 mg ampicillin, 2 mg metronidazole, 4 mg neomycin, and 2 mg vancomycin) for 7-14 days as indicated in the figure legends. Bacterial cultures were washed and resuspended in sterile PBS at 10^9/mL for E. faecium, E. faecalis, and L. plantarum or at 10^7/mL (SPF) or 10^3/mL (GF) for S. Typhimurium. Mice were colonized by gavage with 100 uL of the indicated bacterial suspension 4 hours before infection (for streptomycin-treated mice) or 2-7 days before infection (for AMNV and GF gnotobiotic mono-colonized mice). Colonization was followed by infection with S. Typhimurium by oral gavage at the doses indicated above and in the figure legends. Weight loss was monitored from just before infection, and mice were euthanized when they reached 80% baseline weight or when they appeared hunched or moribund, whichever occurred first. Death was not used as an end-point. Colony-forming units (CFU) in the feces were determined by plating 5 serial dilutions of feces suspended in sterile PBS on selective agars: Salmonella Shigella Agar (BD 211597) for S. Typhimurium, Enterococcosel Agar (BD 212205) for E. faecium and E. facealis, and MRS Agar with 8 ug/mL chloramphenicol for L. plantarum-vector and -SagA. Resulting quantities were normalized to feces weight."}, "[3]": {"assay": "ANTS labeling assay of peptidoglycan digests", "type": "biochemical", "details": "purified E. coli peptidoglycan digested with lysozyme and the protein", "description": "E. coli supernatants were prepared by inoculating cultures 1:50 with an overnight culture of E. coli BL21-RIL(DE3) expressing SagA-His6 or AS-His6. Cultures were grown for 2 hours, then induced with 1 mM IPTG, and grown for an additional 2 hours. Enterococcus supernatants were prepared by growing cultures overnight. Cultures were pelleted, and supernatant was filtered through 10 kDa MWCO columns (Millipore Microcon). For peptidoglycan digests, 100 μg of E. coli peptidoglycan was digested with 20 μg lysozyme and 20 μg of SagA-His or AS-His overnight in a mixture of PBS and water at 37° C. Digests were filtered through 10 kDa MWCO columns. Culture supernatants, peptidoglycan digests, and defined peptidoglycan fragments were dried by speed-vac before ANTS labeling. ANTS labeling was using established techniques. 10 μl of ANTS reaction mix was added to each tube of dried material (1:1 mixture of 0.2 M ANTS (in 3:17 acetic acid:water): 1 M NaCNBH3 (in DMSO)). Reactions were incubated overnight at 37° C. 0.5-3.5 μL of the ANTS labeled mixtures were mixed 1:1 with 40% glycerol and samples were separated by native PAGE on a hand-cast 37-40% Tris-glycine acrylamide gel (19:1 polyacrylamide:bisacrylamide, with a 20% acrylamide stack) at 150 V for ˜3 hours or 80 V for ˜6 hours. Empty lanes adjacent to sample lanes were loaded with samples of ANTS labeled Ala-D-γ-Glu-Lys-D-Ala-D-Ala (Sigma). […]"}, "[4]": {"system": "S. Typhimurium", "assay": "Worm CFU measurements, S. Typhimurium", "type": "in vivo, C. elegans", "details": "protein-treated infected animals", "description": "Worm CFU measurements: Protocol for CFU measurements was adapted from previous protocol. Briefly, 5-20 worms were rinsed in drops of S buffer, and allowed to crawl free of bacteria on a sterile plate. These worms were then mechanically lysed in PBS using microtubes and pestles (Kimble-Chase). Serial dilutions of worm homogenate were plated on Salmonella-Shigella agar (BD BBL) or Enterococcosel (BD BBL) agar plates, and plates were incubated at 37° C. overnight."}, "[5]": {"system": "S. Typhimurium", "assay": "Growth of S. Typhimurium in the presence of SagA", "type": "cell-based", "details": "LB media + 10 μg/ml protein", "description": "(§1) Growth of E. coli and S. Typhimurium in the presence of SagA: LB media was inoculated with overnight cultures 1:100. Protein was added at 10 μg/mL and volumes were normalized across all conditions with PBS. OD600 was measured at given time points. Growth of OG1RF-sagA: BHI media was inoculated with overnight cultures 1:100. Chloramphenicol was added at 10 μg/mL as indicated. OD600 was measured at given time points."}, "[6]": {"system": "SPI-1 type III protein secretion in S. Typhimurium", "assay": "Salmonella protein secretion assay", "type": "cell-based", "details": "LB + 10 μg/ml protein", "description": "Salmonella protein secretion assay: For each condition, 2 mL of LB was inoculated with overnight cultures 1:30. Protein was added to media at 10 μg/mL and volumes were normalized across all conditions with PBS. Cultures were grown for 4 hours, shaking at 37° C., the pelleted at 7000 g for 5 minutes. 1 mL of culture supernatant was precipitated with trichloro acetic acid (TCA) at a final concentration of 10% overnight at 4° C. Precipitated proteins were pelleted at 20,800 g for 30 minutes, rinsed 2 times in acetone, then air-dried. Proteins were then separated by SDS-PAGE and visualized by Coomassie staining."}, "[7]": {"system": "E. coli BL21-RIL(DE3)", "assay": "Growth (OD600) of E. coli expressing SagA, AS or SagA-SS", "type": "cell-based", "details": "IPTG-induced expression in E. coli BL21-RIL(DE3)", "description": "Bacterial growth curves: Growth of E. coli expressing SagA, AS, or SagA-SS: Cultures were grown as described for protein purification, except that OD600 was monitored at given time points using a Spectromax M2e spectrophotometer."}, "[8]": {"system": "E. coli BL21-RIL(DE3)", "assay": "Growth of E. coli in the presence of SagA", "type": "cell-based", "details": "LB media + 10 μg/ml protein", "description": "as §1"}}, "note": "“Also recorded” adds a separate entry of the source.", "data": [{"molecule": "CC(=O)N[C@H]1C(O)O[C@H](CO)[C@@H](O)[C@@H]1O", "note": "(some centres unmarked) [GlcNAc, N-acetylglucosamine]", "values": [{"measurement": "Inhibition of S. Typhimurium pathogenesis (C. elegans survival)", "setting": "[1]", "result": "not protective; also recorded: did not inhibit S. Typhimurium pathogenesis"}]}, {"molecule": "CC(=O)N[C@H]1C(O)O[C@H](CO)[C@@H](O)[C@@H]1O[C@H](C)C(=O)N[C@@H](C)C(=O)N[C@H](CCC(=O)O)C(=O)O", "note": "(stereo partly drawn) [MDP, MurNAc-L-Ala-D-Glu]", "values": [{"measurement": "Inhibition of S. Typhimurium pathogenesis (C. elegans survival)", "setting": "[1]", "result": "not protective; also recorded: did not inhibit S. Typhimurium pathogenesis"}]}, {"molecule": "CC(=O)N[C@H]1C(O)O[C@H](CO)[C@@H](O)[C@@H]1O[C@H](C)C(=O)O", "note": "(some centres unmarked) [MurNAc]", "values": [{"measurement": "Protection of antibiotic-treatment mice from S. Typhimurium pathogenesis", "setting": "[2]", "result": "insufficient to protect antibiotic-treatment mice from S. Typhimurium pathogenesis"}, {"measurement": "Inhibition of S. Typhimurium pathogenesis (C. elegans survival)", "setting": "[1]", "result": "can inhibit S. Typhimurium pathogenesis; also recorded: sufficient to inhibit S. Typhimurium pathogenesis"}, {"measurement": "Inhibition of S. Typhimurium pathogenesis (survival) in tol-1(nr2033) animals", "setting": "[1]", "result": "do not inhibit S. Typhimurium pathogenesis; also recorded: not protective"}]}, {"molecule": "N-acetylmuramic acid-L-alanine [MurNAc-L-Ala]", "values": [{"measurement": "Inhibition of S. Typhimurium pathogenesis (C. elegans survival)", "setting": "[1]", "result": "can inhibit S. Typhimurium pathogenesis; also recorded: sufficient to inhibit S. Typhimurium pathogenesis"}, {"measurement": "Inhibition of S. Typhimurium pathogenesis (survival) in tol-1(nr2033) animals", "setting": "[1]", "result": "not protective"}, {"measurement": "Inhibition of S. Typhimurium pathogenesis (survival) in tol-1(nr2033) animals", "setting": "[1]; listed as MurNAc-Ala", "result": "do not inhibit S. Typhimurium pathogenesis"}]}, {"molecule": "B1", "values": [{"measurement": "Peptidoglycan cleavage product (ANTS visualization)", "setting": "[3]", "result": "yielded a unique peptidoglycan cleavage product with similar mobility to MurNAc-L-Ala"}, {"measurement": "S. Typhimurium colonization of C. elegans (imaging and CFU)", "setting": "[4]", "result": "does not affect S. Typhimurium colonization of C. elegans"}, {"measurement": "Effect on growth rate of S. Typhimurium in culture", "setting": "[5]", "result": "no effect on the growth rate of S. Typhimurium"}, {"measurement": "Effect on secretion of S. Typhimurium type III protein effectors (SPI-1) in culture", "setting": "[6]", "result": "does not affect SPI-1 secretion in culture"}, {"measurement": "Effect on secretion of S. Typhimurium type III protein effectors (SPI-1) in culture", "setting": "[6]; listed as recombinant SagA", "result": "no effect"}, {"measurement": "E. coli cell lysis (culture optical density) on induced expression", "setting": "[7]", "result": "decrease in culture optical density"}, {"measurement": "Effect on growth rate of E. coli in culture", "setting": "[8]", "result": "no effect on the growth rate of E. coli"}, {"measurement": "Inhibition of S. Typhimurium pathogenesis (C. elegans survival)", "setting": "[1]", "result": "inhibits S. Typhimurium pathogenesis"}, {"measurement": "Inhibition of S. Typhimurium pathogenesis (C. elegans survival)", "setting": "[1]; listed as SagA-His6", "result": "sufficient to inhibit S. Typhimurium pathogenesis"}]}]}
